Test results as given in paper PMC5441855.

Tested on: CC(C)=CCC/C(C)=C/CC/C(C)=C/CC/C(C)=C/COP(=O)(O)OP(=O)(O)O
Test: purified protein
Conditions: 50 mM HEPES pH 7.0, 100 mM KCl, 0.1 mM MgCl2, 10% glycerol, 30 °C, 1-25 µM GGPP, 30 s, product (-)-kolavenyl diphosphate

SdKPS (Tr-SdKPS) (Salvia divinorum)
Km: 1.9 ± 0.66 µM | kcat: 0.88 ± 0.11 s⁻¹
